Assay: soluble on expression in E. coli; label from the status in PepcDB or PDB records

Sequence | soluble on expression in E. coli
MIRSSIDLMLKTGAAALAKNFENRDPIAGQREILARLVVAAAVTRFGRDHGFAELAGEPFDRLYAEFRRRVPIRTYADFWRDYFSAWQSDANGSQRLLLEDVTWPGRIPFFCETSGTTAPTKYIPFSREMFAANKRAAIDLTACYLHRTPRSRLFQGKLLYMAGNTSLTDLGNGVQSGDMSGITLRHRPFYLRPFVAPGMAVSALPWEEKVVELAGLLLSDRSIRGISGVPPWIILLLQRVEEMGHRPIAELLPNLELIIHGGTSMKPYRREFDGLFPRRRPHFLEVLPSSEAFMAFQLPGEDRMRLVPHYGAFFEFIPIEDLDEGGTPAADAPTVPLEAVETGRRYAVILTTCAGLWRYHIGDTLRFTALSPHFIEFTGRDRFLDRFEEKVTQGEVEEAVARLNQLDGIEVREFMVGPDIGERRHLWVLAVGEMNERSGDVLGRHLDATLRSLNADYATFRSQGRIAGPRVVTVSGDVIYRWSKEVRGKLGGQSKIPHVDPTVEGEMVASLAAFARRFQACWIADSFQGFGPTGRVKVQNSSNFTGSRSLPERTRPSSSVVLEHHHHHH | not soluble
MSDEAWKQTLICESINDKIGYWEYLAVTDKRRRSRNKAQSSGAENYKKVLEEQQRIYTAGGMGYGPEMYQVISNPMRNQKRVNNIEGSKIFAAMNSGAPRIALDIQYVEEMNKRDSGELGNQMQYTISENFSAKSPFVLDFVNSPSKEFLEQWLSKSVGYYTGNYINQTILPDFSTKGIKEFYGKSANTIYISSNARDVLDGPLTADVIGICVTMGRKREALSAARRANIRAYRLPIHRYVKWKSGPQYLPFPNIMNVLREVYMNGGDWSRALHNNISKRHLVNADDDEQKKMQMLRRRAREEERRELTEAIMSATKG | not soluble
MGSDKIHHHHHHMTSSSRIAVRELPLFPLPEVVLFPTRPLPLHIFEFRYRIMMNTILESDRRFGVLMVDPVKGTIANVGCCAEIIHYQRLPDDRMKMLTLGQQRFRVLEYVREKPYRVGLVEWLEDHPPAKDLRPLATDVEQLLRDVVRLSAKITEQNIEIPEELPDLPTELSYWVASNLYGVAGEQQSLLEMQDTAARLEREAEILTTTRNHLAARSVLKDTFNPKL | not soluble
MSLKSKVLVIDDEPDIRELLTLTLSRMGLICDAVSDFKQGIEHIKQNYYSLVLTDMRLPDGDGIEIVKFIQKYKPQLPVAVITAYGNVEGAVNTLKAGAFDYVSKPVDLKMLRELVKTALSMQNPSTESPDEGLLVGESLIMQQLRESIHKLARSQAPVFIQGDSGVGKELVAQLIHANGPRKDKPFIPVNCGAIPGELMESEFFGHKKGSFTGAISDKTGLFVAAHGGTLFLDEIAELPLAMQVKLLRAIQEKAIKPIGELYEIPVDVRILSASHKNLIEEINAGRFRQDLYYRINVIELRVPTLMERLSDIPCLTEAILKKLSKNQNRNLVKINPSCFEILSRYHFPGNVRELENILERAMAMCEGEVIEPSEGHHHHHH | soluble
NSSKSLEAELVRDRQELIDARKKELKAYMMMGVTAIKPLYDSDVNGSNKQAAKEILKAMRFESDGYFFAYDSQGINTLHAIKPSLEGKNLYDLKDENGVAVIAGLIDASQKGDGFLYFSWHKPTINAQAPKLGYAEYLQKWDWVLGTGIYIDDIDQQVAMQRELRTQELNQHT | soluble
TPLSQSSSSKNASDVSGSIQPVDSKSGLQMLFSGYRGIGGVQTLDLQQMSSDIPNAETKTVADQVINAWKQMKYTPFGRSTGSFTIRLNPEHLGFVTIKLTNENGMFQSKIIASSQSAKELLEQHLPQLKQSLPNMAVQIDRFTLPVQS | not soluble
MGSDKIHHHHHHMPFVFACLSIKIPRKGTVMAEPLATTPIRYSFGADEHLFAEVSESMSLEAFFKGMAVTRAVERMALDGVLDVCLANASFQVRFDPDRIAPEALLEAVRGAEAQAVAERSLQTRIIEIPVLYNDPWTHETLMRFRDRHQDPTSTDLEYAARINGLADVEAFIAAHSGAPWFVSMVGFVAGLPFMFQMVERERQLQVPKYLRPRTDTPKLTLGHGGCFGCIYSVRGAGGYQMFGVTPAPIYDPQQTLNYLKEHMVFFRPGDIVQFKPIDRRTYDQAVAEVEDGCFDLRIRPVAFSLDAFLADPVGYPKSLQEVLA | not soluble
MGSDKIHHHHHHMNLKSGYPFWSIRNGLMRPYPRLEQDTHCEVAIIGGGVTAALIAHELLRHGHEVVVIEQREIGWGSTSASTALLQYEIDTPMVDLAAQYGMPAAALAYGACAKAILDLQELCDGLGGCDFTRQDSLYYASRARDLKDLQRELDARKTHALPVEWIAGDALWHDYGVRSEGAILSRLAASVDPYRLCYRLFAECEQYGGRIYDRSPIATLQAHDQHVDLRTQDGVNVRARHVIMAAGYGNQQWLSQRVARNRSSYAFVTDPLHDTDVGALKHTMMWETARPYLYVRTTADGRVVAGGEDDSIDIPARRDARVLSKMDTLLKKIAKVMPDVRLRPVFAWGGTFAETADGLPFFGTHSEHGPRVAFAMAYGGNGITYSAIGAGLLRAQLEGRAYPLSDLFGFSRLG | not soluble
SPGNRENKEKKVFISLVGSRGLGCSISSGPIQKPGIFISHVKPGSLSAEVGLEIGDQIVEVNGVDFSNLDHKEAVNVLKSSRSLTISIVAAAGRELFMTDR | soluble
MAKKTSSKGKLPPGPSPLPVLGNLLQMDRKGLLRSFLRLREKYGDVFTVYLGSRPVVVLCGTDAIREALVDQAEAFSGRGKIAVVDPIFQGYGVIFANGERWRALRRFSLATMRDFGMGKRSVEERIQEEARCLVEELRKSKGALLDNTLLFHSITSNIICSIVFGKRFDYKDPVFLRLLDLFFQSFSLISSFSSQVFELFSGFLKYFPGTHRQIYRNLQEINTFIGQSVEKHRATLDPSNPRDFIDVYLLRMEKDKSDPSSEFHHQNLILTVLSLFFAGTETTSTTLRYGFLLMLKYPHVTERVQKEIEQVIGSHRPPALDDRAKMPYTDAVIHEIQRLGDLIPFGVPHTVTKDTQFRGYVIPKNTEVFPVLSSALHDPRYFETPNTFNPGHFLDANGALKRNEGFMPFSLGKRICLGEGIARTELFLFFTTILQNFSIASPVPPEDIDLTPRESGVGNVPPSYQIRFLARHHHHHH | soluble
ARFYSDGLKLAGTLFVPDDYEPGQKRPAVLICHGRFAIKEWVPSRWTPHFLAAGYVCMVFDYRNLGESEGTPGRIIPDEEVRDARHALTYLQCQPEVDPARIGALGWGLGGGVAVSAAAHDARIKAVVCAIGVANGGRYGRVGMSDAAWAARQEQIAADRRERVLTGRSARLPRTEILGRPDAQRAERHERQNWIDSLVAAVGPERAADPAKLGIPDEITLESMEALYDFAPDAVVDRIAPRPLLIVHARDDHEFPFEHAADMYERAAQPKQLIAVEDAGHLDWIDPAHPSQQVYVPQVVAWMQAQL | not soluble
GPTTPVPVSGSLEVKVNDWGSGAEYDVTLNLDGQYDWTVKVKLAPGATVGSFWSANKQEGNGYVIFTPVSWNKGPTATFGFIVNGPQGDKVEEITLEINGQVI | soluble
VGGQVRIAANTSSITQFLPEDLAGFMQRHPAVRIHLEEQNSSDIVTAVAENRADVGIFADRTPAAGLTTVPYRLDELVLITPPRHPLAARAQVAFADTLDCDYVGLPPATSLATRLADESARLDKSIRLRIQVRSFDAICRMVVAT | not soluble
MDKIKVGLQYWIPQHGLTRLVGKLASAKAGSLTTAVIRWFIKQYNVNMDEAKHSDPKHFKTFNEFFVRELKEGARPITEGDEIITHPADACVSQFGPIEDGQLIQAKGHNYSAQELLGGDEKLAEEFKDGSFATLYLSPRDYHRVHMPCDGTLRQMIYVPGDLFSVNPLTAENVPNLFARNERVVCIFDTEFGPMAQVLVGATIVGSIEQVWAGTITPPRGNTVYKWDYPAEGDKAVILKKGEEMGRFKLGSTVINLFAKDAIEFDVSMENGQPTVMGTPYALKKLEHHHHHH | soluble
MGSDKIHHHHHHMSALVDPVTDTDLDAYVDDQLDVTRRIEVEAFLSTRPEAAARVMSDLRTRDELRVALAGSKGMARPATADAARRLERGLARGRIFGVLQRSAAVAAFVAAGWLANGIIGPMSVTKVVASPQPPAYVDEAVRAHRTTLVRETMPSQPEAPNYSAGEIRAATAIVMPSLPKDWKVRDVQIYPSRFGPSVEMAVDTKDMGLVSLFAIRPGTFDVVKPTVAPSGDISSAYFQIGEVAYAVVAKSGVRDLDRAAETLARTLY | not soluble
MCVVIFLKFLFSDNGNNQHGTEAAFGRLAQSYRIQDLLFIIVIFFRAIHIMMFHRPPSARPPLNHVDQLKSLQATALGKPGMRSQATEPQPIGNTVSPLEFRIHDMNRRLYIFSSTGVSENDQQQWWDAFSHEFFDDDCKLWFVIGSEPVAFASRERYIINRQFIPKFFRSIFDSGMRELQYVLRGPSRECTLANGSQAYENENVLQITRYDQSSQFEVNTEGKLYVEFAPFDEVMNYRIKAWTLELKRSNEFVYNQNTADYRVEAQNPEQENKPRMGFFKSTFNLMTMLKILDPMQSIMSSAKSAPAITPREVMKRTLFQHHQVRQQNMRQQQLNQQMMIPAPEPEKPKPARKRQRKPAANPRGSKKATAAAAAAAAAATNGVPPTVPTASPANNQQFPPNPMTSQFQQMSYPDVMVVGEPSMMGSEFGENDERTISRVENSQYDPNAMQMQSLGQGPNSSMNINGRNMMNQHHPGMQPPPGQQHMPPHSMGSQMPTSMHNPMHMPPGSMQGHGGMPPMPSTMANQMPPPNLPPHTMSNQMPNSRMPPMQGQMPPSGMPGQMSNPNMMGSGMPPMSMSSQMPGSMSNPMPNQMPGGMQMNQMPPPNYSQYTGGPPPQWPPPNSAMITG | not soluble
MAHHHHHHMQPLLRVPRAVHPHVERPLLGYLPPPVSHFSTKRNNCTGYDHPRGAPPQLNKTYHSQANFRDTKMEFCQVDLDEFCYKQFDSTKKSCSFIPYDKNEFLDKVNELIRQKKIKVVPGYAGFCKHIFVENFTEATVETIEINNKNRDLIKTDYISRRDNELPVLIRWISKKDVKDIIKAKYLDLILYSREQIEKENKETKTVPNRKSNCLYSIICIKPQNVDYELPMTPITMLRNTLISEGGSGINLNRDKYLESVKYWRHHVSIIDN | soluble
MAKITVGTENQAPIEIYYEDHGTGKPVVLIHGWPLSGRSWEYQVPALVEAGYRVITYDRRGFGKSSQPWEGYEYDTFTSDLHQLLEQLELQNVTLVGFSMGGGEVARYISTYGTDRIEKVVFAGAVPPYLYKSEDHPEGALDDATIETFKSGVINDRLAFLDEFTKGFFAAGDRTDLVSESFRLYNWDIAAGASPKGTLDCITAFSKTDFRKDLEKFNIPTLIIHGDSDATVPFEYSGKLTHEAIPNSKVALIKGGPHGLNATHAKEFNEALLLFLKD | not soluble
ELNNLRMTYERLRELSLNLGNRMVPPVGNFMPDSILKKMAAILPMNDSAFATLGTVEDKYRRRFKYFKATIADLSKKRSSE | soluble
ATIKDVAKRANVSTTTVSHVINKTRFVAEETRNAVWAAIKELHYSPSAVARSLKVNHTKSIGLLATSSEAAYFAEIIEAVEKNCFQKGYTLILGNAWNNLEKQRAYLSMMAQKRVDGLLVMCSEYPEPLLAMLEEYRHIPMVVMDAGEAKADFTDAVIDNAFEGGYMAGRYLIERGHREIGVIPGPLERNTGAGRLAGFMKAMEEAMIKVPESWIVQGDFEPESGYRAMQQILSQPHRPTAVFCGGDIMAMGALCAADEMGLRVPQDVSLIGYDNVRNARYFTPALTTIHQPKDSLGETAFNMLLDRIVNKREEPQSIEVHPRLIERRSVADGPFRDYRR | soluble
MDSNSTTSFLSNGYNHKETLKLIEDMKNSASNKGILLYVNSPGGGVYESDELYLKLKEYKEETGRPVWTYMSNQACSGGYYISMASDKVFSNRNAWTGSIGVIISLTNLKGLYDNLGIKGIYITSGRNKAMGAADLELTDEQRDILQSLVDEAYEQFVEIVAEGRKMTVEEVKRIADGRILSAKQALELNLIDEIATYDEVKEAFQRRAWKC | not soluble

Source: the DeepSol protein solubility set
